No end group written: not given here. *: point of attachment. FITC = O=C1OC2(c3ccc(O)cc3Oc3cc(O)ccc32)c2ccc(NC(=S)*)cc21
Molecular target: yeast-displayed E4 peptide
Assay: flow cytometry on cells; E4 displayed on yeast cells; FITC-K4-TAMRA added at 100 nM, 15 min, 4 °C, PBS containing 5% immunoblock, two washings; 488 nm laser, 525/50 and 585/30 filters

mean FITC and TAMRA fluorescence: 10000
Binder: {FITC}-KIAALKEKIAALKEKIAALKEKIAALKEC(5‑TAMRA C6 maleimide) [FITC-K4-TAMRA]

Reference: article PMC8604967
